Laboratory results taken from patent US6011146A, “Altered major histocompatibility complex (MHC) determinant and methods of using the determinant” (Institut Pasteur, priority 1995, dated 2000).
Several values for one entry are separate records, joined by “and”; a condition that tells them apart may be missing. Equal entries are not always repeated.

Columns and labels:
SC-K^d -15 (mouse) = SC-K^d -15 (mouse) (UniProt P01887)
[1] = target: K^d molecules isolated from the spleen of BALB/c mice (mouse, UniProt P01887); experiment: direct peptide binding assay, peptide coated on plastic, 125I-labeled K^d

Molecule	cpm bound (SC-K^d -15 (mouse))	binding result [1]
influenza NPR- 147-158 (peptide)	214 cpm and 171 cpm	
TYQRTRALVTG [influenza NPR- 147-158]		no binding (tested: 10 µg/ml; pH 9.6)
